Reference: US20260078197A1

Target: Macaca fascicularis (crab-eating macaque) TFR1 expressed on CHO-S cells (Macaca fascicularis (crab-eating macaque))
Test: flow cytometry on CHO-S-fasTFR1 cells; anti-hIgG-Fc Alexa Fluor 647 secondary

Chain of Macaca fascicularis (crab-eating macaque) TFR1 expressed on CHO-S cells (Macaca fascicularis (crab-eating macaque)) (chain, as listed by the source limits assumed): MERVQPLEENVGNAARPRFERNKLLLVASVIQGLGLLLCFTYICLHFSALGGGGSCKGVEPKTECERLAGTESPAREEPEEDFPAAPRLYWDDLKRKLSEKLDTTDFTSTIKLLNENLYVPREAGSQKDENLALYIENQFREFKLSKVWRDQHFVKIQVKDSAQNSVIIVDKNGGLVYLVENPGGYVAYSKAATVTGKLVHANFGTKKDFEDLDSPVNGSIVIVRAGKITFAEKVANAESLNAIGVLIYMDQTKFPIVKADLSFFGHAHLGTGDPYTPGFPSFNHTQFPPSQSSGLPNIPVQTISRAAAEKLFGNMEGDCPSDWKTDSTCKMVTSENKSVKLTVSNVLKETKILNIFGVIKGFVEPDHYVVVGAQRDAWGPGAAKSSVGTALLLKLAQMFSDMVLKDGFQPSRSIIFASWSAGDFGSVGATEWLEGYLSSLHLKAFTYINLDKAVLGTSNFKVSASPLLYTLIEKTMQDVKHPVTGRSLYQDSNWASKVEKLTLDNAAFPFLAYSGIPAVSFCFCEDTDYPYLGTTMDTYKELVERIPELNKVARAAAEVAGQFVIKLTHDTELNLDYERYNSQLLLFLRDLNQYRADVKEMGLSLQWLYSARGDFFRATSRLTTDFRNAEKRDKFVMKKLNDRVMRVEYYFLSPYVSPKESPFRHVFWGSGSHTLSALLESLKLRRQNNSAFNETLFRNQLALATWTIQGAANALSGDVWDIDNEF

Percentage of Positive Cells: 0.35%
B1: 24C9 (antibody, human IgG1, V domains shown)
VH: EVQLVQSGGGVVQPGRSLRLSCAASGFTLSSYGMYWVRQAPGKGREWVAFIRFDESKKYYADSVKGRFTISRDNSKNTLYLQMNSLRAEDTAVYYCARDGEGGYCTNGVCHGLDVWGQGTTVTVSS
